Reference: the supplement of paper PMC10065799, “High-throughput profiling of sequence recognition by tyrosine kinases and SH2 domains using bacterial peptide display” (eLife, 2023)

Key:
AncSZ = assay: phosphorylation enrichment, bacterial display (enrichment ratio); higher = better substrate or ligand; peptides without Tyr show the background
EPHB1 = EPHB1 (UniProt P54762); assay: as above
EPHB2 = EPHB2 (UniProt P29323); assay: as above
FGFR1 = FGFR1 (UniProt P11362); assay: as above
FGFR3 = FGFR3 (UniProt P22607); assay: as above
FGFR3, sequence (P22607 whole entry, looked up): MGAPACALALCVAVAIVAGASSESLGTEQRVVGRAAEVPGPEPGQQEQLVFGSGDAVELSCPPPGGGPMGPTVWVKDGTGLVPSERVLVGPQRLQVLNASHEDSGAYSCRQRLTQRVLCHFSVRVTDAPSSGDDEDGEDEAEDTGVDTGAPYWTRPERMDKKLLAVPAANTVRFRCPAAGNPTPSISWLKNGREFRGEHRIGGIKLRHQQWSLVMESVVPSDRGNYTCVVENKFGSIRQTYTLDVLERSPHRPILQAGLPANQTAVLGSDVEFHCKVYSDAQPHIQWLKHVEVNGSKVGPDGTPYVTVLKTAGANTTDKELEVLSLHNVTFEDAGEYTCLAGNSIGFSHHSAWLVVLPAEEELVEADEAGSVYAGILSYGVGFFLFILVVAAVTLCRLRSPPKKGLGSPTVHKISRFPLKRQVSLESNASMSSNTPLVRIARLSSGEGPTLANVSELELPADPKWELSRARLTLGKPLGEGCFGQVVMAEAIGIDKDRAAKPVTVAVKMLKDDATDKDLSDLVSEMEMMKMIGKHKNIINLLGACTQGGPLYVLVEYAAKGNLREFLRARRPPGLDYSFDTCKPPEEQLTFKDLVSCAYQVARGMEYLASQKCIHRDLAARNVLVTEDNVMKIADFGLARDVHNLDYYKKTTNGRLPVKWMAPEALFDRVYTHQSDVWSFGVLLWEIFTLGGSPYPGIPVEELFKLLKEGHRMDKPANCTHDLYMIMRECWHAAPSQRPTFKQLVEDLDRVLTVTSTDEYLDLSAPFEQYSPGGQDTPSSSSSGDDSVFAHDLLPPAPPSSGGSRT

Fer (mouse) = assay: as above
Fes = Fes (UniProt P07332); assay: as above
Fes, sequence (P07332 whole entry, looked up): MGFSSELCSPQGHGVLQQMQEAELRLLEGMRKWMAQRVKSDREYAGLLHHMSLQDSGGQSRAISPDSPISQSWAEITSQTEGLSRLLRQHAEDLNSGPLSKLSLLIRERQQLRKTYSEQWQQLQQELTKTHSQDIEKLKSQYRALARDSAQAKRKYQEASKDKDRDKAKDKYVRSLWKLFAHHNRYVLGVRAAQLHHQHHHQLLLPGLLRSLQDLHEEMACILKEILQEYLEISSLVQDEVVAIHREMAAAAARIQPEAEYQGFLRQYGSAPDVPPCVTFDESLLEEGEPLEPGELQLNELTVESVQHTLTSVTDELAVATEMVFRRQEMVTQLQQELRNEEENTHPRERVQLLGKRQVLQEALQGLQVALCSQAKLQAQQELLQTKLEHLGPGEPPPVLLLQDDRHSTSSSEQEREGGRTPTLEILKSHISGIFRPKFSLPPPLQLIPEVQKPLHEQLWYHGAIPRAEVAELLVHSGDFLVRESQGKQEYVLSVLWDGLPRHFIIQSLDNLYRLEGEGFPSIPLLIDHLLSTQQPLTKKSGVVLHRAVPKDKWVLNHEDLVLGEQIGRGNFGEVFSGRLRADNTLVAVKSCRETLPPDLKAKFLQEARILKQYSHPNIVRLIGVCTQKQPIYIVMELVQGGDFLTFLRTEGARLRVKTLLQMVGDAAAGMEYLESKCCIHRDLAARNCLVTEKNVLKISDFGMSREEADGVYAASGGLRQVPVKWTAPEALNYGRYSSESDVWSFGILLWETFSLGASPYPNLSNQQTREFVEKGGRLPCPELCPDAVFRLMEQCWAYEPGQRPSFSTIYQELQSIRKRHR

Fyn = Fyn (UniProt P06241); assay: as above
Fyn, sequence (P06241 whole entry, looked up): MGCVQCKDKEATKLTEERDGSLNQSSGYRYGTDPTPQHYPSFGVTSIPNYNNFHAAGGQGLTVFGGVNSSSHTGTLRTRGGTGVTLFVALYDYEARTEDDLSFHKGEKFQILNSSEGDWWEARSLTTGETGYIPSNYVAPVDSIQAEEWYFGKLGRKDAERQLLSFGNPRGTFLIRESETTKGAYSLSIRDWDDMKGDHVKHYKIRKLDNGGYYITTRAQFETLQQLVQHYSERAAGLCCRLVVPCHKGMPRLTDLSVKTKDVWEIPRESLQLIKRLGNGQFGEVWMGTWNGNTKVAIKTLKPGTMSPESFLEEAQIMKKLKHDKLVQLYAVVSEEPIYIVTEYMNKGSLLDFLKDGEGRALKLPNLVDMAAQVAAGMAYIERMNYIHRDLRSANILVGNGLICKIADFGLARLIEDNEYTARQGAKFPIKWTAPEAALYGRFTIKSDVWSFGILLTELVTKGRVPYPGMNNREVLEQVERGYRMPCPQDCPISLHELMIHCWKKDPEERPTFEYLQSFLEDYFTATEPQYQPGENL

Hck = Hck (UniProt P08631); assay: as above
Jak2 = Jak2 (UniProt O60674); assay: as above
MERTK = MERTK (UniProt Q12866); assay: as above
MERTK, sequence (Q12866 whole entry, looked up): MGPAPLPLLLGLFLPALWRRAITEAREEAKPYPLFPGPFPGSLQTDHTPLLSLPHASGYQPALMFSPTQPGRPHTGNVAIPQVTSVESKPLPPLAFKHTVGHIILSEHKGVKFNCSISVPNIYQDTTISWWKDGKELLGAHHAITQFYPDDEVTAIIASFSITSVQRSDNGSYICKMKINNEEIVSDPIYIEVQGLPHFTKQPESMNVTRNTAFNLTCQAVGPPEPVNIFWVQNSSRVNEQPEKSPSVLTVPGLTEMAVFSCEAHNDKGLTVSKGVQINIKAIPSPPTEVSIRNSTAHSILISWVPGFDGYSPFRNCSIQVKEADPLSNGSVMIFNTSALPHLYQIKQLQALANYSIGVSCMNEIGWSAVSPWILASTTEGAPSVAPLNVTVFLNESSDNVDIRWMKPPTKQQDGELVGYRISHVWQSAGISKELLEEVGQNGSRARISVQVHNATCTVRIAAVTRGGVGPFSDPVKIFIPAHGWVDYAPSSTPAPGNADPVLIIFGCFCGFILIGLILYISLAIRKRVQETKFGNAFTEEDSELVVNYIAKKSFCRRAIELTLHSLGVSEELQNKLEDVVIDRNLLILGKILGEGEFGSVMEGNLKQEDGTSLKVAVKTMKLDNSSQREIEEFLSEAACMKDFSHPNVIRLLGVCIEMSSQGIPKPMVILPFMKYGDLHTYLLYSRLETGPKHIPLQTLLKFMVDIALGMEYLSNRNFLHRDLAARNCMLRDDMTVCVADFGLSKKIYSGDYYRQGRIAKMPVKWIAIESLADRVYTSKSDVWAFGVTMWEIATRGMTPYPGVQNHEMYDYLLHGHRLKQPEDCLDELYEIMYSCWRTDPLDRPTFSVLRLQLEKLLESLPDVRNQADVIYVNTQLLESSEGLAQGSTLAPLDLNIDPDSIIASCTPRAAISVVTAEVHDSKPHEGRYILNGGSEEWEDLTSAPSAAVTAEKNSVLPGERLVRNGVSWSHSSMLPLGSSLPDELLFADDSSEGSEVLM

c-Abl (mouse) = assay: as above
c-Src = assay: as above
Grb2 SH2 = Grb2 SH2 (UniProt P62993); assay: SH2 binding enrichment of the phosphorylated peptide, bacterial display (enrichment ratio); higher = better substrate or ligand; peptides without Tyr show the background
SHP2-C SH2 = assay: as above
c-Src SH2 = assay: as above
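For SH2 binding enrichment of the phosphorylated peptide, bacterial display in this document: peptide library displayed on the E. coli surface as eCPX fusions, selected cells deep-sequenced, score is each peptide's frequency after selection divided by its frequency in the input.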
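For phosphorylation enrichment, bacterial display in this document: 11-residue human phosphosite peptides and single-mutation variants displayed on the E. coli surface, counted by deep sequencing, each peptide's frequency after selection divided by its frequency in the unselected input library; frequency after pTyr selection over input frequency; kinase dosed for 20-30% of maximal phosphorylation in three min.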

EPHB1, sequence (P54762 whole entry, looked up): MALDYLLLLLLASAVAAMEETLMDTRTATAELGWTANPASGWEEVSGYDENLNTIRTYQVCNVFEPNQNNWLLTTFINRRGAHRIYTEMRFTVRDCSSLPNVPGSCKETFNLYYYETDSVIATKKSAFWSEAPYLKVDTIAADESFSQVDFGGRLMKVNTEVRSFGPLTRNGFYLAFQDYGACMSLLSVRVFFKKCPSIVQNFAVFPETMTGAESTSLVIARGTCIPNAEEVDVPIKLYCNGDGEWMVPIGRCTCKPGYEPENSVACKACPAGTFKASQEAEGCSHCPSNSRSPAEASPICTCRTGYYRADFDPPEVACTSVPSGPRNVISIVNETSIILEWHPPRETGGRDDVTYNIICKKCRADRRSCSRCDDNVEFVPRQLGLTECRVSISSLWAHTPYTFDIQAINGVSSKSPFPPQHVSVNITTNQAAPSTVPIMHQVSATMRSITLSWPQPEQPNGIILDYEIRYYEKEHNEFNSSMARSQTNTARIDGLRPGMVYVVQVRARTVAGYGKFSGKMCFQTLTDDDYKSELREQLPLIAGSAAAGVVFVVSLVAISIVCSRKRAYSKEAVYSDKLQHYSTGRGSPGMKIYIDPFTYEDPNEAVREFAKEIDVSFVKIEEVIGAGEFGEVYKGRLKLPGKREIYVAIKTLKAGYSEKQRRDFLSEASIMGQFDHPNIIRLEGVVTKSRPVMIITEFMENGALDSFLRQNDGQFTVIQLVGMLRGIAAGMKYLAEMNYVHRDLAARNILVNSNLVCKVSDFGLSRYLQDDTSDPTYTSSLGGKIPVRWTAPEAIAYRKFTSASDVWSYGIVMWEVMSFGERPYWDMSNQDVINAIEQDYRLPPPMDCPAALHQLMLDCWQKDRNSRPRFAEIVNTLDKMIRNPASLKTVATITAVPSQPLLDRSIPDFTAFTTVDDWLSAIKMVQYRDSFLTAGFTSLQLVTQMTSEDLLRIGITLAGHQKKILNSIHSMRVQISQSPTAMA
FGFR1, sequence (P11362 whole entry, looked up): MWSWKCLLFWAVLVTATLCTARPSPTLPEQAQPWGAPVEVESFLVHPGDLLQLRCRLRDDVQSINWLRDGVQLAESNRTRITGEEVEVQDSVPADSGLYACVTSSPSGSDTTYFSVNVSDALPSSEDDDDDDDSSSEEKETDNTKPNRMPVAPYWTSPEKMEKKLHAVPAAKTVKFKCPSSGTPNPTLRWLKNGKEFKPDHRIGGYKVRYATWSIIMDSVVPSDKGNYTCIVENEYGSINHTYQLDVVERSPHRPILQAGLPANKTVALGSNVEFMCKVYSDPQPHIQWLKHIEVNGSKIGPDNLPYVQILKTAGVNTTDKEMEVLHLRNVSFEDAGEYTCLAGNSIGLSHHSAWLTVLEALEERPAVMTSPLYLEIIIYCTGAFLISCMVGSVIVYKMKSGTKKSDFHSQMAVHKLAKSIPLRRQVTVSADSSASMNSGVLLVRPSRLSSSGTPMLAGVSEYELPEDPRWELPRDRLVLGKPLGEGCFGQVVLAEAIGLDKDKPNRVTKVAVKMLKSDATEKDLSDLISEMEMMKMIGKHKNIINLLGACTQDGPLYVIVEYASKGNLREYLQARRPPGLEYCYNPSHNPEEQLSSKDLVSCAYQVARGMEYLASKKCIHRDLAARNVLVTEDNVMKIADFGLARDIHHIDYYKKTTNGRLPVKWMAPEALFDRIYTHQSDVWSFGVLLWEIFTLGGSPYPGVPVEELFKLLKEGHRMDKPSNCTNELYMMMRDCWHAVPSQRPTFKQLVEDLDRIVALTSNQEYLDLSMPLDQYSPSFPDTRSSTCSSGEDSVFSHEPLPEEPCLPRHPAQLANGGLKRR

Sequence	phosphorylation enrichment (AncSZ)	phosphorylation enrichment (EPHB1)	phosphorylation enrichment (EPHB2)	phosphorylation enrichment (FGFR1)	phosphorylation enrichment (FGFR3)	phosphorylation enrichment (Fer (mouse))	phosphorylation enrichment (Fes)	phosphorylation enrichment (Fyn)	phosphorylation enrichment (Hck)	phosphorylation enrichment (Jak2)	phosphorylation enrichment (MERTK)	phosphorylation enrichment (c-Abl (mouse))	phosphorylation enrichment (c-Src)	SH2 binding enrichment (Grb2 SH2)	SH2 binding enrichment (SHP2-C SH2)	SH2 binding enrichment (c-Src SH2)
GEYYRYLAEVA [YWHAG_Y133_D129E]	2.12	1.13	2.05	9.65	7.42	0.374	0.858	1.52	1.4	4.37	1.73	1.88	2.34	0.827	0.848	0.669
QLQVFYATRDQ [MIPEP_Y579_L582R]	1.27	0.787	0.805	0.86	1	0.59	1.71	0.881	1.14	1.96	0.567	1.2	0.977	0.904	1.25	0.659
ARSHIYTFSSC [MEFV_Y741_A744S]	0.867	0.519	0.665	0.547	0.681	0.497	0.917	1.3	0.61	0.714	0.62	0.578	1.15	0.893	1.46	0.751
LFIGQYSGKKE [L1CAM_Y1229_S1224L]	1.41	0.984	1.11	1.02	1.13	0.901	2.22	1.07	1.02	1.77	0.972	1.07	1.12	0.924	0.745	0.843
GQKVAYGGTED [ALDH3A1_Y305_G309E]	0.747	0.424	0.471	0.412	0.63	0.344	0.939	0.438	0.402	0.791	0.417	0.577	0.412	0.788	0.549	0.471
LHSEAYLKYIE [PBRM1_Y1610]	1.16	0.753	1.2	0.633	0.743	0.665	0.994	0.831	0.684	1.55	0.678	0.9	0.941	0.664	0.445	0.443
PKGIGYGQGAG [CSRP3_Y73]	0.458	0.396	0.469	0.731	0.513	0.492	0.721	0.525	0.4	0.474	0.462	0.422	0.308	0.823	0.43	0.489
AIDDKYSRREE [SART1_Y685]	0.806	0.431	0.511	0.488	0.578	0.434	0.939	0.51	0.465	0.794	0.439	0.471	0.426	0.937	0.968	0.44
VTQEPYELFCE [CBL_Y368_Q367P_YF]	1.58	0.74	0.687	0.649	0.938	1.15	1.32	0.793	0.569	0.998	0.592	0.817	1.19	1.01	0.944	0.719
KDFETYQSFQN [CTNND2_Y1157_P1159S_YF]	0.958	2	1.17	0.5	0.691	0.493	0.984	6.89	5.29	0.798	0.484	0.668	4.94	0.846	0.816	0.523
RRVLVYRGRGA [QDPR_Y16_G17R]	0.963	0.818	0.714	0.758	0.779	0.618	0.991	0.712	0.782	0.692	0.708	0.829	0.754	0.71	0.5	0.425
LNWIFYKDQTG [RS1_Y166_YF]	0.977	0.611	0.306	0.27	0.932	0.54	1.72	0.48	0.239	1.29	0.468	0.843	0.567	0.937	0.88	0.657
LKETGYVVERP [BCLAF1_Y466]	0.768	0.494	0.278	0.443	0.609	0.321	0.807	0.434	0.399	0.553	0.438	0.469	0.411	0.862	0.68	0.501
TDKLFYIFTSG [SLC27A4_Y243_YF]	1.6	0.732	0.701	0.686	0.886	0.472	1.44	0.506	0.524	1.41	0.538	0.766	0.469	0.851	0.825	0.447
GRPLFYWLTGC [LYZL6_Y140]	0.968	0.686	0.491	0.533	0.836	0.418	1.13	0.407	0.42	1.04	0.469	0.713	0.33	0.803	0.85	0.527
YASALYGQRRS [FGF11_Y162_R163G]	0.633	0.391	0.384	0.371	0.408	0.411	0.668	0.659	1.54	0.604	0.505	0.978	0.784	0.675	0.424	0.553
PKEEPYQMQEK [SLC5A3_Y565]	2.33	0.964	1.26	1	1.21	0.687	1.92	0.784	0.566	1.17	0.691	0.943	0.923	0.78	0.614	0.457
STGRSYAGVAV [KLHL3_Y577]	0.43	0.25	0.3	0.482	0.389	0.31	0.466	0.345	0.315	0.389	0.318	0.361	0.302	0.878	0.837	0.476
TINPIYEHVGY [CHN1_Y143]	1.15	25.6	26.2	1.01	1.06	22.4	8.63	14.7	13.6	0.578	12.2	5.77	8.55	0.762	0.582	0.574
AQAGEYGAEAL [HBA1_Y25_H21Q]	0.965	0.609	0.545	0.557	0.629	0.465	0.96	0.507	0.514	0.767	0.327	0.491	0.33	0.931	0.842	0.608
EHFSFYGMKAV [SLC15A2_Y61_R57H_YF]	0.868	0.498	0.601	0.441	0.615	0.48	1.04	0.473	0.846	0.901	0.417	0.624	0.579	0.795	0.629	0.41
EEVPLYESATT [DCC_Y809_G805E]	1.5	2.19	2.66	0.487	0.878	6.01	1.32	1.07	1.49	1.27	0.601	1.04	1.09	0.8	0.574	0.457
KDFETYQPFQN [CTNND2_Y1157_YF]	1.13	0.69	0.786	0.54	0.603	0.612	1.02	4.76	5.76	0.869	0.463	0.741	4.18	0.948	0.699	0.544
LGEGSYGKVKE [STK11_Y60]	1.75	1.29	0.868	1.21	0.783	0.574	1.5	0.939	0.862	1.58	0.887	1.12	0.863	0.669	0.52	0.571
ARTNEYKIIRT [INA_Y87]	0.525	0.468	0.425	0.455	0.452	0.512	0.469	0.504	0.502	0.571	0.436	0.843	0.569	0.877	1.11	0.494
GKSFTYAAFHA [KCNT1_Y563]	0.849	0.603	0.613	0.51	0.583	0.454	0.812	5.65	4.03	0.826	0.819	0.654	5.91	0.855	0.527	0.41
QNTGDDFDLFG [PTPN11_Y62_Y62D_YF]	1.7	0.599	1.02	0.936	1.1	0.7	1.75	0.54	0.748	1.6	0.634	1.11	0.689	0.768	0.442	0.402
SARSAYQEAMD [SFN_Y151]	0.81	0.474	0.584	0.418	0.539	0.402	0.854	0.495	0.445	0.638	0.38	0.628	0.353	0.766	0.713	1.06
